System: MS2 coat protein
Test: apparent KD of MS2 coat protein; higher = weaker reporter binding
Conditions: Eterna round: R107
Method: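 RNA-MaP round R107: designed RNA switches with theophylline, tryptophan, arginine or FMN aptamers are transcribed on-chip within common flanks. They are titrated with SNAP-549-labelled MS2 coat protein in RNA-MaP buffer (100 mM Tris pH 7.5, 80 mM KCl, 4 mM MgCl2), without ligand or with the indicated ligand. Median apparent KD per design.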

[1] = input ligand: theophylline 20 uM
[2] = input ligand: theophylline 2 mM
[3] = input ligand: tryptophan 2.4 mM

Sequence | apparent KD of MS2 coat protein (input ligand: arginine 13.2 mM) [nM] | apparent KD of MS2 coat protein (input ligand: none) [nM] | apparent KD of MS2 coat protein [1] [nM] | apparent KD of MS2 coat protein [2] [nM] | apparent KD of MS2 coat protein [3] [nM]
AAUUCCUAACAUGAGGAUCACCCAUGUGAAGGAGCGCCGAAUAAGGCAGGUAGGUCGCACAUGGAACCGCUACGAAAGUAGCAAA | 22.5 | 23.5 | 23.6 | 21.6 | 17.8
ACACGGAAUGAUGGAUCACCUCGUUAAUAACGAGGACCGGUACGGCCGCCACUCGAAAACCGUGACCUGUACGAAAAGUGCAGGA [TrypAS 15 #SwitchBubble #HomemadeMS2 #StaticStrem #MS2Early] | 27.3 | 33.6 | 314 | 488 | 76.1
ACAUACAUGAGGAUCACCCAUGUCCAUGUUCGAGGACCGGUACGGCCGCCACUCGCGCGACAGCAUGAGGAACUUGAGGAUCACA [Exclusion Tryptophan A] | 39.5 | 63.8 | 104 | 82.2 | 48.8
ACAUGAAGAACAGCGGUGGGCGCGCUCGAUACCAGUAUUUUAAAUUACCCUUGGCAGCGACAUGAGGAUCACCCAUGUGAGAUGA [XTheo A #5] | 22.5 | 18.1 | 24.8 | 33.8 | 18
ACAUGAGGAUCACCCAUGUAAAUAACGGAAGGAGCGUGCAAAAGCACAGGUAGGUCGCCGAUAUAAAUAUUGGGUAAUAUAUUAU [ExyArgA#1] | 25 | 34.2 | 41.5 | 28.2 | 28
ACAUGAGGAUCACCCAUGUAAUAAUCAGAAGGAGCGUGGAAUAACACAGGUAGGUCGCUGAUGUUUGGUUAAAUGUAAUCGUGUA [JR_SSArginiA_Sub001] | 13 | 13.5 | 18.1 | 17.6 | 17.1
ACAUGAGGAUCACCCAUGUAAUACCGGGAAGGAGCGCGUAAGGACGCAGGUAGGUCGCUCGGCGUCCGGCCGCAAGGCCGGACGA [#1 Same State - Arginine A Attempt #12 (HarryS)] | 21 | 14.4 | 24.3 | 10.7 | 14.7
ACAUGAGGAUCACCCAUGUAUCAACGGGAAGGAGCGCCAAACAAGGCAGGUAGGUCGCCCACAUGAGGAUCACCCAUGUGUUGGU [Exclusion Arginine A GF 29] | 20.6 | 21.4 | 25.8 | 24.9 | 21.1
ACAUGAGGAUCACCCAUGUAUGACUAUCCUCGAGGACCGGUACGGCCGCCACUCGAACGAGUGGCUCGCGAGUGCGCACUCGCGA [5' end] | 11.7 | 13.3 | 16.6 | 11.3 | 10.3
ACAUGAGGAUCACCCAUGUAUGACUAUCCUCGAGGACCGGUACGGCCGCCACUCGAAGGAGUGGCUCGCGAGUGCGCACUUGCGA [5' end] | 10.9 | 11.9 | 19.2 | 11.8 | 12.1
ACAUGAGGAUCACCCAUGUAUGAUGUUCCUCGAGGACCGGUACGGCCGCCACUCGAACGAGUGGCGCGCGCGCGCGCGCGCGCGC [aUa] | 54.8 | 16.5 | 35.1 | 22.7 | 16.4
ACAUGAGGAUCACCCAUGUCAAGGCACGAUACCAGCUGAUCCCGUGGCCCUUGGCAGCGUCACGUUUGGUCCCGCGGAUGACACG [zczmullin] | 38.4 |  | 111 |  | 86.9
ACAUGAGGAUCACCCAUGUCACGGCACGAUACCAGCUGAUGCGGUGGCCCUUGGCAGCGUGACGUUUGGUCCCGCGGAUGACGGG [zzmullin] | 36.6 |  | 74.3 |  | 53.2
ACAUGAGGAUCACCCAUGUCAGGGCACGAUACCAGCUGAUCCGGUGGCCCUUGGCAGCGUGACGUGUGGUCAUGAGGAUCACCCG [wsmullin] | 283 | 520 | 642 | 638 | 464
ACAUGAGGAUCACCCAUGUCAUGAGGUUCACGAGGACCGGUACGGCCGCCACUCGACAUGAGGGUCACCCAUGUGAGGAACACCC [mamullun] | 117 |  | 278 | 579 | 
ACAUGAGGAUCACCCAUGUCUGCCUCGGAUACCAGCGGAAGAAAACGCCCUUGGCAGCCGAACAUGAGGAUCACCCAUGUAGGCU [Same State Theophylline A GF30] | 28.8 |  | 55.1 |  | 45.2

From the supplement of paper PMC9170038
